This is an account of results in US20100305034A1 (UNIVERSITY OF BRISTOL, published 2010).

This data set concerns the molecule itself. Briefly: Western blot of conditioned media from transfected HEK293 cells. The protocol:
Full length VEGF₁₆₅b or VEGF₁₆₅ (generated by PCR from tissue) was cloned into the expression vector pcDNA₃ using standard methodology, and then transfected into HEK 293 cells and a stable cell line generated using Geneticin selection. Confluent cells were incubated in basal M200 endothelial cell medium for 48 hours, containing neither serum nor Geneticin, and the conditioned media assayed for VEGF concentration using a pan VEGF ELISA(R&D). Control conditioned media (pcDNA3-CM) was collected in the same way from HEK293 cells stably transfected with pcDNA₃. […] VEGF₁₆₅b was the same molecular weight as VEGF₁₆₅, and both isoforms correspond to previously published molecular weights for VEGF₁₆₅ (Ferrara N et al Biophys. Res. Comm. 1989; 161: 851-8). […] This is probably due to the fact that commercially available VEGF₁₆₅ is not glycosylated. There was some VEGF₁₆₅b and VEGF₁₆₅ in the conditioned media that appeared to be de-glycosylated, but this was a small fraction of the total VEGF.
In general terms: A western blot detects proteins with antibodies after separation by electrophoresis.

B1: VEGF165b (recombinant, produced by transfected HEK293 cells) (ligand)
chain: APMAEGGGQNHHEVVKFMDVYQRSYCHPIETLVDIFQEYPDEIEYIFKPSCVPLMRCGGCCNDEGLECVPTEESNITMQIMRIKPHQGQHIGEMSFLQHNKCECRPKKDRARQENPCGPCSERRKHLFVQDPQTCKCSCKNTDSRCKARQLELNERTCRSLTRKD
notes: Secreted into conditioned medium of HEK293 cells stably transfected with pcDNA3-VEGF165b; mostly glycosylated (about 23 kDa); also called VEGF165b-CM; new isoform VEGF165b
Turning to B1, the binding result is “binds”.
